Source: paper PMC1888729, “Control of Pre-mRNA Splicing by the General Splicing Factors PUF60 and U2AF65”

Key:
[1] = target: T1, PUF60 (short isoform PUF60S, HEK-293E-derived) (Homo sapiens, UniProt Q9UHX1-2 1-542); experiment: EMSA; with U2AF65/35; PUF60 binding enhanced, U2AF:RNA complex decreases; 25 mM Tris pH 7.5, 25 mM NaCl, 1 mM EDTA, 0.1 mg/ml tRNA, 0.5 mg/ml BSA, ~0.2 nM RNA, 60 min room temperature (6% native gel in cold room); footprints same plus 1 U/ml RNasin, 30 min, then 2.6 mg/ml tRNA with RNase 5 min; details: protein: recombinant; label: 32P; single strand
U2AF65 (in U2AF65/35 …) = target: U2AF65 (in U2AF65/35 heterodimer);U2AF35 (in U2AF65/35 heterodimer) (Homo sapiens;Homo sapiens, UniProt P26368;Q01081 1-475;1-240, |); experiment: EMSA; U2AF65/35 alone; 25 mM Tris pH 7.5, 25 mM NaCl, 1 mM EDTA, 0.1 mg/ml tRNA, 0.5 mg/ml BSA, ~0.2 nM RNA, 60 min room temperature (6% native gel in cold room); footprints same plus 1 U/ml RNasin, 30 min, then 2.6 mg/ml tRNA with RNase 5 min; details: protein: recombinant;recombinant; tags: ;; copies: 1;1; label: 32P; single strand
[2] = target: T1, PUF60 (short isoform PUF60S, …); experiment: EMSA; PUF60 alone; 25 mM Tris pH 7.5, 25 mM NaCl, 1 mM EDTA, 0.1 mg/ml tRNA, 0.5 mg/ml BSA, ~0.2 nM RNA, 60 min room temperature (6% native gel in cold room); footprints same plus 1 U/ml RNasin, 30 min, then 2.6 mg/ml tRNA with RNase 5 min; details: protein: recombinant; label: 32P; single strand

Measured: binding result

T1 sequence (Q9UHX1 other isoform, or with tags, fused parts or gaps): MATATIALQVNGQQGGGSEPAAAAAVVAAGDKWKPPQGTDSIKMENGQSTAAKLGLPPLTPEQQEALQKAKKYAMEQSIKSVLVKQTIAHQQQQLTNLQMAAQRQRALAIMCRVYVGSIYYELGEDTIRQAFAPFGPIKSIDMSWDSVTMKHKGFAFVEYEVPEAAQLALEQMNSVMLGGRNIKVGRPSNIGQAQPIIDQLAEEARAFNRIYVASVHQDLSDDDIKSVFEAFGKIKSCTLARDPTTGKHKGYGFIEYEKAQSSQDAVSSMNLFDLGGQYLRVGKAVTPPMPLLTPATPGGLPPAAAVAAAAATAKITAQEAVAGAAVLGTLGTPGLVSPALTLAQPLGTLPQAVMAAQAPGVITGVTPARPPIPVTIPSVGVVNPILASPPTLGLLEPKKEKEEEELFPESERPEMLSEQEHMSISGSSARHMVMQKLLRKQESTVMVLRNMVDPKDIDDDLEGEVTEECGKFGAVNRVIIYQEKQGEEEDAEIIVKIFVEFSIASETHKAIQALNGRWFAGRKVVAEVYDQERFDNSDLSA
Sequence of U2AF65 (in U2AF65/35 heterodimer);U2AF35 (in U2AF65/35 heterodimer) (P26368 whole entry, chain 1 of 2, canonical isoform): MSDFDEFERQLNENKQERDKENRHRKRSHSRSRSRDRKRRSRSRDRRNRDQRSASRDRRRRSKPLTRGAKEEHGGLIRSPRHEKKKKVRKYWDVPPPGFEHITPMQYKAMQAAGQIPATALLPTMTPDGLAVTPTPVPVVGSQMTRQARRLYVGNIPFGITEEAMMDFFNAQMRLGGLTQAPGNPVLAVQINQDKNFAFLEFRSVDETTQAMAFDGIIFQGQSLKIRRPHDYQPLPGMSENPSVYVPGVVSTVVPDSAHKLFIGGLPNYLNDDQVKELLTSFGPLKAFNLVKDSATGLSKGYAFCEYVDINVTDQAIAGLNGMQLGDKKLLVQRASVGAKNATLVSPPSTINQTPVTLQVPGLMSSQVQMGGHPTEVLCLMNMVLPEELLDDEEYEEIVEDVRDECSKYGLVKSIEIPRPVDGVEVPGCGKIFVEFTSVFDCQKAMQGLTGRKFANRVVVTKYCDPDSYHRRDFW
Sequence of U2AF65 (in U2AF65/35 heterodimer);U2AF35 (in U2AF65/35 heterodimer) (Q01081 whole entry, chain 2 of 2, canonical isoform): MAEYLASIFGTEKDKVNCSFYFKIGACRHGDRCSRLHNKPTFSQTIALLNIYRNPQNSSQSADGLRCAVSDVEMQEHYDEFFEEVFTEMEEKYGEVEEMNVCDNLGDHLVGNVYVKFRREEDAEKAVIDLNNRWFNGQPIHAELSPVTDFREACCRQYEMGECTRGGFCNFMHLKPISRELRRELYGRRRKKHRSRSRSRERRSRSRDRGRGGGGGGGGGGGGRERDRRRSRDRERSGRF

UUCGUGCUGACCCUGUCCCUUUUUUUUCCACAGC (ssRNA) [AdML 3' splice-site RNA, 34 nt]
binds: all assays above
